Test results taken from paper doi:10.1101/2020.02.11.943159 (bioRxiv, 2020).
Where no end group is shown, it is not given here.

T1: pS2pS5 CTD diheptapeptide (also: pS2pS5: Ser2 and Ser5 phosphorylated, which heptad repeat(s) not given here)
T1 peptide: YSPTSPSYSPTSPS

T2: pS2 CTD diheptapeptide (also: pS2: Ser2 phosphorylated, which heptad repeat(s) not given here)
T2 peptide: YSPTSPSYSPTSPS

T3: pS2pS7 CTD diheptapeptide (also: pS2pS7: Ser2 and Ser7 phosphorylated, which heptad repeat(s) not given here)
T3 peptide: YSPTSPSYSPTSPS


Columns and labels:
pS2 CTD diheptapeptide [1] = assay: fluorescence correlation spectroscopy
[2] = biological target: pS2pS5 CTD diheptapeptide; assay: fluorescence correlation spectroscopy
[3] = biological target: T1, pS2pS5 CTD diheptapeptide; assay: fluorescence polarisation
pS2 CTD diheptapeptide [4] = biological target: T2, pS2 CTD diheptapeptide; assay: fluorescence polarisation
[5] = biological target: T3, pS2pS7 CTD diheptapeptide; assay: fluorescence polarisation

| Molecule | stoichiometry N (pS2 CTD diheptapeptide [1]) | stoichiometry N [2] | fold reduction of binding against SPOC WT [3] [fold] | fold reduction of binding against SPOC WT (pS2 CTD diheptapeptide [4]) [fold] | fold reduction of binding against SPOC WT [5] [fold] |
| --- | --- | --- | --- | --- | --- |
| PHF3 SPOC domain (1199-1356aa), bacterially expressed (from UniProt Q92576 1199-1356) (domain or fragment) | 1 | 1 | – | – | – |
| PHF3 SPOC R1248A mutant, bacterially expressed (domain or fragment) STFLARLNFIWKGFINMPSVAKFVTKAYPVSGSPEYLTEDLPDSIQVGGAISPQTVWDYVEKIKASGTKEICVVRFTPVTEEDQISYTLLFAYFSSRKRYGVAANNMKQVKDMYLIPLGATDKIPHPLVPFDGPGLELHRPNLLLGLIIRQKLKRQHS | – | – | > 10 | > 10 | > 10 |
